Results on one molecule are retold here after patent US8257949B2, “Self-priming polysialyltransferase” (National Research Council of Canada, priority 2006, dated 2012).

The test can be described thus: Comparison of PST-16 and PST-17 sialic acid polymerization, CE analysis. Type of test: biochemical. An excerpt:
The dotted line represents PST-16; the solid line represents PST-17. Arrows indicate the positions of Lactose (lac), GD3, GQ4, and polysialylated products conjugated to more than four sialic acid residues. The amount of polysialic acid relative to all other sialylated species ([…] sialic acid moieties) is about 50% in for each reaction.
Sialylation of the starting material: (▪), +1 NeuAc; ( ? ), +2 NeuAc; (□), +3 NeuAc; ( ? ), 4 NeuAc; ( ? ), >4 NeuAc (▪). 6A is PST-16 with Lac-FCHASE substrate. 6B is PST-17 with Lac-FCHASE substrate. 6C is PST-16 with T-Ag-FCHASE substrate. 6D is PST-17 with T-Ag-FCHASE substrate.
A fusion of Cst-II from C. jejuni OH4384 and the E. coli PST protein (PST-16) was generated and compared to the and N. meningitidis fusion (PST-17). Enzymatic activities of the two fusion proteins were determined and compared. […] See, e.g., FIGS. 5 and 6.

B1: PST-16: fusion of Cst-II from C. jejuni OH4384 and the E. coli PST protein, SEQ ID NO: 15 (protein)
chain: MKKVIIAGNGPSLKEIDYSRLPNDFDVFRCNQFYFEDKYYLGKKCKAVFYNPSLFFEQYYTLKHLIQNQEYETELIMCSNYNQAHLENENFVKTFYDYFPDAHLGYDFFKQLKDFNAYFKFHEIYFNQRITSGVYMCAVAIALGYKEIYLSGIDFYQNGSSYAFDTKQKNLLKLAPNFKNDNSHYIGHSKNTDIKALEFLEKTYKIKLYCLCPNSLLANFIELAPNLNSNFIIQEKNNYTKDILIPSSEAYGKFSKNINFGGGHMIFDASLKKLRKLFVNPIGFFRDSWFFNSKNKAEELLSPLKIKSKNIFIISNLGQLKKAESFVQKFSKRSNYLIVLATEKNTEMPKIIVEQINNKLFSSYKVLFIPTFPNVFSLKKVIWFYNVYNYLVLNSKAKDAYFMSYAQHYAIFVYLFKKNNIRCSLIEEGTGTYKTEKENPVVNINFYSEIINSIILFHYPDLKFENVYGTYPILLKKKFNAQKFVEFKGAPSVKSSTRIDNVIHKYSITRDDIIYANQKYLIEHTLFADSLISILLRIDKPDNARIFIKPHPKEPKKNINAIQKAIKKAKCRDIILITEPDFLIEPVIKKAKIKHLIGLTSSSLVYAPLVSKRCQSYSIAPLMIKLCDNDKSQKGINTLRLHFDILKNFDNVKILSDDITSPSLHDKRIFLGE
Take B1: the “consumption of the acceptor” value is listed as “consumed completely”. For the same molecule, the “formation of long sialic acid polymers” value (CE analysis) was “did not detect formation of long sialic acid polymers”. Further, the “amount of polysialic acid relative to all other sialylated species” value (Lac-FCHASE acceptor, FIG. 5) is reported as “about 50%”.
